Data reported in PMC9759587.

What was measured:
IgG1 Fc^E382R (human) = test: crystal structure; EndoS^D233A/E235L and IgG1 Fc^E382R combined 1:1, complex purified by SEC, exchanged into 50 mM HEPES, 150 mM KCl pH 7.5; crystals in Morpheus condition (0.09 M halogens, buffer system 2 pH 7.5, 37.5 % precipitant mix 4); space group P2_(1)2_(1)2_(1), 3.45 Å
IgG1 Fc^E382A (human) = test: crystal structure; IdeS^C94A and IgG1 Fc^E382A combined 1:1, complex purified by SEC, exchanged into 50 mM HEPES, 150 mM KCl pH 7.5; crystals in Morpheus condition (0.12 M monosaccharides mix, buffer system 3 pH 8.5, 30 % precipitant mix 1); space group C121, twinned data, 2.34 Å

Substance	stoichiometry N (EndoS per IgG1 Fc molecule) (IgG1 Fc^E382R (human))	stoichiometry N (IgG1 Fc^E382A (human)) [IdeS per Fc]
EndoS^D233A/E235L (truncated EndoS, residues 98-995) (from UniProt Q99Y92 98-995) (enzyme)	2	–
IdeS^C94A (IdeS from Streptococcus pyogenes strain MGAS15252, Mac-2 variant, amino acids 41-339) (enzyme)	–	1
